From article PMC11508141

Molecular target: T1, DJ-1 protein with the 6X-His tag, Q99497
T1 chain: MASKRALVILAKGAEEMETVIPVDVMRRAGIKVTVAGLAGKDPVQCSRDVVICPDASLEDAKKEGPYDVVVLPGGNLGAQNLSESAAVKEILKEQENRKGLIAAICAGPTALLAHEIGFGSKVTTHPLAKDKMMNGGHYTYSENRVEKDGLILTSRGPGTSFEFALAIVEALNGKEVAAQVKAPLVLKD
Assay: cross-linking; purified DJ-1 treated with 25 mM DSS at 25 °C for 30 min, with or without P1 or P2, then SDS-PAGE (12% gel)
Conditions: remark: other sources report otherwise

stoichiometry N: 2
B1: DJ-1 protein with the 6X-His tag, Q99497 1-189 (enzyme)
chain: T1 chain
